Values of other authors as cited in paper PMC7699679.
pKd: −log10 of the molar value.

Columns and labels:
[1] = molecular target: CXCR2 (Homo sapiens) (UniProt P25025)
[2] = molecular target: CXCR1 (Homo sapiens) (UniProt P25024)
[3] = molecular target: CCR2 (Homo sapiens) (UniProt P41597)
[4] = molecular target: C5aR (Homo sapiens) (UniProt P21730)
UniProt P21730, sequence (P21730 whole entry): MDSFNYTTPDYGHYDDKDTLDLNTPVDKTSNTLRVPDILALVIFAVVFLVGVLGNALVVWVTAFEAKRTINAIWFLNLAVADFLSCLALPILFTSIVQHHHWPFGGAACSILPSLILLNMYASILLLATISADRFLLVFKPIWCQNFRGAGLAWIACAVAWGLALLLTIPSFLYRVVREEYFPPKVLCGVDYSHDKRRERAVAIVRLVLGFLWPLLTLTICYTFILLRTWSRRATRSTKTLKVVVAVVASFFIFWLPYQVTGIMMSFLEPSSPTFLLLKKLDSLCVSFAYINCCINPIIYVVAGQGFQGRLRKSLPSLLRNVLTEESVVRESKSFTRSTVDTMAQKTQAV

UniProt P41597, sequence (P41597 whole entry): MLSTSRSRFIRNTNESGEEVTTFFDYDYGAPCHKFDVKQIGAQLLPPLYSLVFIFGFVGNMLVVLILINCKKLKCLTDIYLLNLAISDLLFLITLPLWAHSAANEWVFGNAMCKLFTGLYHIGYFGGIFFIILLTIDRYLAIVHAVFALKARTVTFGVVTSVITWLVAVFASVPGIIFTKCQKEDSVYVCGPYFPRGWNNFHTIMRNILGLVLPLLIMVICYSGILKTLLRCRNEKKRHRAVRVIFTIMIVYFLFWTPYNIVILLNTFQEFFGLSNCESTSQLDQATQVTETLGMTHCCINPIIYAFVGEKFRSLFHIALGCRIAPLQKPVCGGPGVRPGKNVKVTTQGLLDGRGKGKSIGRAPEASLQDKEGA
UniProt P25024, sequence (P25024 whole entry): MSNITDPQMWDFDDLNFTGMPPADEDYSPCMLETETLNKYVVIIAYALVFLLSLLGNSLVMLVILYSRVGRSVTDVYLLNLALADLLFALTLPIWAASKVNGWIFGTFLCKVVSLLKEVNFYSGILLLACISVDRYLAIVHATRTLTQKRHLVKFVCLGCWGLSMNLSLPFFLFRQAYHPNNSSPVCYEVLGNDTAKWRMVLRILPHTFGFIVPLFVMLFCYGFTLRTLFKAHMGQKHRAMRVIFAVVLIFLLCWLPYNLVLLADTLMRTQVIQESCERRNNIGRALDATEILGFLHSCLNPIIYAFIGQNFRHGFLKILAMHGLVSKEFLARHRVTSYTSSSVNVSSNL
UniProt P25025, sequence (P25025 whole entry): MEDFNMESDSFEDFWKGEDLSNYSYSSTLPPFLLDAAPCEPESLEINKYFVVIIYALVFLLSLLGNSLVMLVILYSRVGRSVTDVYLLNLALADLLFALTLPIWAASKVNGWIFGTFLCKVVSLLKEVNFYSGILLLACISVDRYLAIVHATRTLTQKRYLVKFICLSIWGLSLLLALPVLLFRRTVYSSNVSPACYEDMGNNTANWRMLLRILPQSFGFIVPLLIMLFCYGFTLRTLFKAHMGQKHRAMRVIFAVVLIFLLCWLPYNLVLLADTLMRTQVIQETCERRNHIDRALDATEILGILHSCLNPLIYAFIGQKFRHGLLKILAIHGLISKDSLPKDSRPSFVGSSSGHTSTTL

| Substance | pKd [1] | pKd [2] | pKd [3] | pKd [4] |
| --- | --- | --- | --- | --- |
| HlgA (from UniProt Q5HDD6) | 7.57 | 8.24 | 8.45 | – |
| HlgC (from UniProt Q07227) | – | – | – | 8.25 |
